Results published in patent publication US12551596B2, “Delivery systems for administration of cationic biological actives” (Allvivo Vascular, Inc., priority 2017, dated 2026).

Experiment: Stability of ASP-1 in PU 077 catheter coating after EO sterilization and storage, HPLC
Assay type: physicochemical
Details: coated on catheters, EO sterilized, stored at room temperature up to 9 months
Description: Composition (lot K-132, Table 9.1) comprising ASP-1 peptide (SEQ ID NO: 17 in Table A), custom synthesized hydrophilic medical grade polyurethane (PU 077), polyoxyl 15 hydroxystearate (PEG-15-HS) and citric acid monohydrate (CAxH2O) was prepared by dissolving components in MEK/ethanol solvent and dip coated on 7 Fr triple lumen catheters.
The obtained ASP-1 coated catheters were sterilized by ethylene oxide (EO) gas, vacuum dried and pouched in aluminum foil bags supplied with a desiccant pouch. Peptide purity and recovery from coatings before EO sterilization and after EO sterilization and storage was measured by HPLC after full extraction from catheters.

In the case of “RRWVRRVRRWVRRVVRVVRRWVRR (Antimicrobial peptide) [ASP-1]”, the “stability of ASP-1 peptide in catheter coating” value is reported as “good stability”.
